B1: adiponectin PPRE probe (-291 to -267) (dsDNA)
DNA 1: TGGTTTTGACTTTTGCCCCATCTTC
DNA 2: GAAGATGGGGCAAAAGTCAAAACCA
B2: adiponectin LRH-RE probe (-245 to -221) (dsDNA)
DNA 1: AATAAGGGTCAAGGCCTGGAAACAC
DNA 2: GTGTTTCCAGGCCTTGACCCTTATT

Tests used:
[1] = biological target: PPARγ/RXRα heterodimer (Homo sapiens, UniProt P37231;P19793 P37231:1-505,P19793:1-462); experiment: EMSA; poly(dI-dC), 25 C 20 min then 4 C 15 min; band when both PPARγ and RXRα present; competed by 10x and 50x unlabeled wild type; conditions: tags: TNT T7 Quick Coupled (Promega); label: 32P
Description: For the binding reaction, human PPARγ and RXRα protein were synthesized in vitro by using TNT T7 Quick Coupled Transcription/Translation Systems (Promega corporation) according to a supplyer's protocol. […] The binding reaction was performed in 20 μl of a solution including 1 μg of poly (dI-dC), 1 μl of the in vitro synthesized nuclear receptor solution, and 200,000 cpm of the labeled probe. After mixing, it was incubated for 20 minutes at 25° C. and was left for 15 minutes at 4° C. The labeled probe binding to nuclear receptors was separated from the free probe by electrophoresis using 4% of polyacrylamide gel. The electrophoresis was executed using 0.5× TBE buffer (45 mM Tris, 45 mM boric acid, and 1 m M EDTA) for 90 minutes under a voltage of 200V. After the electrophoresis, the gel was dried and analyzed by BAS2500 system (Fuji Photo Film Co., Ltd.). To confirm that the labeled probe binds to nuclear receptors specifically, the competitive reactions were executed.

[2] = biological target: LRH-1 (Homo sapiens, UniProt O00482 O00482:1-541); experiment: EMSA; conditions as Example 4; competed by 10x and 50x unlabeled wild type; conditions: protein: synthetic; tags: synthesized in vitro from human LRH-1 expression plasmid; label: 32P
LRH-1, sequence (O00482 whole entry, one chain of several): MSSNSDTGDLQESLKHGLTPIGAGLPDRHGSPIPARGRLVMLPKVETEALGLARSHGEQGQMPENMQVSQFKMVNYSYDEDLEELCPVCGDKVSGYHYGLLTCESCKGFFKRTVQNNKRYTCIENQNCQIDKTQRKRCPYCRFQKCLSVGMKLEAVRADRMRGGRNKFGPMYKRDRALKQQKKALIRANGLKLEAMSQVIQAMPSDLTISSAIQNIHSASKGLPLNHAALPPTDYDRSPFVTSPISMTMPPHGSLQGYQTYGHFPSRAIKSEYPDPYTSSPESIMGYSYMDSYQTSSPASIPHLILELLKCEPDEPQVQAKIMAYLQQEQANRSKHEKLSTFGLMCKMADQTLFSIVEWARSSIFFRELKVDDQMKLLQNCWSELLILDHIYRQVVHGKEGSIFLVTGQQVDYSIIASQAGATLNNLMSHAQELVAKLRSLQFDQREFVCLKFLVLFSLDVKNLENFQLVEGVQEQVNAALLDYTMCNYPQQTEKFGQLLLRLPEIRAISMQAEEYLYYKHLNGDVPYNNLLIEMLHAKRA
Description: To confirm the direct binding of LRH-1 to the regulatory sequence LRH-RE found in human adiponectin promoter region, gel shift assay was executed. […] LRH-1 protein used was synthesized in vitro using human LRH-1 expression plasmid as template. […] In the competitive reaction, identical oligoDNAs to the labeled probe were used as wild-type competitors. […] 10 times or 50 times higher concentration of each unlabeled oligoDNAs was added into the reaction.

PPARγ/RXRα heterodimer, sequence (P37231 whole entry, chain 1 of 2): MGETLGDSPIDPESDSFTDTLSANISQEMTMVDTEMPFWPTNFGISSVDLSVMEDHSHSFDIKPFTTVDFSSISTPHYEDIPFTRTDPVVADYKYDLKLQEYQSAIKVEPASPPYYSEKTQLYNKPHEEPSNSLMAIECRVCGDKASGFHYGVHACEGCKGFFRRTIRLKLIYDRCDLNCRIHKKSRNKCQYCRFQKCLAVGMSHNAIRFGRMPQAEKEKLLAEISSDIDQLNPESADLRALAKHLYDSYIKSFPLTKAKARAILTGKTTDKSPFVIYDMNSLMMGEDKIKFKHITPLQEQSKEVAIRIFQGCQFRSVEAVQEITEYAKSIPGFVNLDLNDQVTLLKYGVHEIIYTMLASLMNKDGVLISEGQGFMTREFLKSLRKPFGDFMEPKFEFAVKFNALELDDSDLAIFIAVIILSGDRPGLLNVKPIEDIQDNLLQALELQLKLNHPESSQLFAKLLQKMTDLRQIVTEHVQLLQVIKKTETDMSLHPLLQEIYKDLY
PPARγ/RXRα heterodimer, sequence (P19793 whole entry, chain 2 of 2): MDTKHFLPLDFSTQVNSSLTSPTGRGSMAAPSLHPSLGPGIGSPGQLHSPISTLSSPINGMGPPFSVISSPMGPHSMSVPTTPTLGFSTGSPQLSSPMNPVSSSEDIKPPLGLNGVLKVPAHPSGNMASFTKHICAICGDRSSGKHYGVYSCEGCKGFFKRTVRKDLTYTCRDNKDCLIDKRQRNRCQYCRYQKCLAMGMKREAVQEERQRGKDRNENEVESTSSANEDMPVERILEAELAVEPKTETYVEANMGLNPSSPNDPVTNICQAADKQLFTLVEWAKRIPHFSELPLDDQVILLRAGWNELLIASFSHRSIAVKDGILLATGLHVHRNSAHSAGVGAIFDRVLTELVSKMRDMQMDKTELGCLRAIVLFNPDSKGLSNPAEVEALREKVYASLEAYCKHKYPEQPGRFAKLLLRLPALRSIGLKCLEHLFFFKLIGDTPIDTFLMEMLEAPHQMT

Binder	binding result [1]	binding result [2]
B1	binds	–
B2	–	binds
